# Test results published in FireProtDB.
# Conditions: Thermal, whole UniProt chain shown
# [1] = Bos taurus, pH 6.5, Absorbance, None, reversible: no
# [2] = Bos taurus, pH 7.4, Absorbance, phosphate, reversible: no
# [3] = Glycine max, pH 7, DSC, HEPES/MOPS/ACES/Tris/triethanolamine/phosphate 17 mM/17 mM/17 mM/10 mM/13 mM/10 mM
protein,measurement,setting,value
"Beta-lactoglobulin wild type, P02754 (protein) MKCLLLALALTCGAQALIVTQTMKGLDIQKVAGTWYSLAMAASDISLLDAQSAPLRVYVEELKPTPEGDLEILLQKWENGECAQKKIIAEKTKIPAVFKIDALNENKVLVLDTDYKKYLLFCMENSAEPEQSLACQCLVRTPEVDDEALEKFDKALKALPMHIRLSFNPTQLEEQCHI",Tm,"Bos taurus, pH 4, DSC, Unknown",82 °C
same,Tm,[1],80.1 °C
same,unfolding enthalpy (van 't Hoff),[1],55.5 kcal/mol
same,Tm,[2],65.9 °C
same,unfolding enthalpy (van 't Hoff),[2],39.9 kcal/mol
"Tryptophan synthase alpha chain wild type, P0A877 (protein) MERYESLFAQLKERKEGAFVPFVTLGDPGIEQSLKIIDTLIEAGADALELGIPFSDPLADGPTIQNATLRAFAAGVTPAQCFEMLALIRQKHPTIPIGLLMYANLVFNKGIDEFYAQCEKVGVDSVLVADVPVEESAPFRQAALRHNVAPIFICPPNADDDLLRQIASYGRGYTYLLSRAGVTGAENRAALPLNHLVAKLKEYNAAPPLQGFGISAPDQVKAAIDAGAAGAISGSAIVKIIEQHINEPEKMLAALKVFVQPMKAATRS",Tm,"Escherichia coli (strain K12), pH 8.98, DSC, sodium tetraborate 1 mM",54.2 °C
"Trypsin inhibitor B wild type, P01071 (protein) DFVLDNEGNPLSNGGTYYILSDITAFGGIRAAPTGNERCPLTVVQSRNELDKGIGTIISSPFRIRFIAEGNPLRLKFDSFAVIMLCVGIPTEWSVVEDLPEGPAVKIGENKDAVDGWFRIERVSDDEFNNYKLVFCTQQAEDDKCGDIGISIDHDDGTRRLVVSKNKPLVVQFQKVDKESL",Tm,[3],59 °C
same,heat capacity change of unfolding,[3],2.63 kcal/mol/K
same,unfolding enthalpy (calorimetric),[3],103 kcal/mol
